Laboratory results from patent US20240352105A1, “COMPOSITIONS AND METHODS FOR NEUTRALIZING ANTIGENS” (PACAGEN, INC, priority 2023, published 2024).
No end group written: not given here.

T1: recombinant His-tagged Der p1 (dust mite, UniProt P08176 99-320, limits assumed)
T1 construct: Recombinant His-tagged protein made by the applicant; also called Der p1-His; Der pl; not shown: His tag
T1 sequence (looked up): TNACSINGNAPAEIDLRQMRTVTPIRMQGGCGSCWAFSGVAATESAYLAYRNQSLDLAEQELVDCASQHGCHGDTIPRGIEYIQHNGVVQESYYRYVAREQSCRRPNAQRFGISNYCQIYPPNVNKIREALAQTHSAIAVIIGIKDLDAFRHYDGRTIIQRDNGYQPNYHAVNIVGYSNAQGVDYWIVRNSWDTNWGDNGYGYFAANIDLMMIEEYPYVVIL


What was measured:
[1] = biological target: T1, recombinant His-tagged Der p1; assay: ELISA, Der p1 on plate, biotinylated peptide at 3.333, duplicate 2
Protocol: (§1) An ELISA was used to validate identified peptides. Der p1 was bound to the bottom of a plate. Different concentrations of the chosen (biotinylated) peptides were added and then washed. Then, HRP-streptavidin (which binds to the biotin) was added and an OD at 450 nm is measured. Duplicate measurements are separated by commas.

[2] = biological target: T1, recombinant His-tagged Der p1; assay: ELISA, Der p1 on plate, biotinylated peptide at 0.041, duplicate 2
Protocol: as §1

[3] = biological target: T1, recombinant His-tagged Der p1; assay: ELISA, Der p1 on plate, biotinylated peptide at 1.111, duplicate 1
Protocol: as §1

[4] = biological target: T1, recombinant His-tagged Der p1; assay: ELISA, Der p1 on plate, biotinylated peptide at 0.370, duplicate 1
Protocol: as §1

[5] = biological target: T1, recombinant His-tagged Der p1; assay: ELISA, Der p1 on plate, biotinylated peptide at 0.123, duplicate 1
Protocol: as §1

[6] = biological target: T1, recombinant His-tagged Der p1; assay: ELISA, Der p1 on plate, biotinylated peptide at 10, duplicate 2
Protocol: as §1

[7] = biological target: T1, recombinant His-tagged Der p1; assay: ELISA, Der p1 on plate, biotinylated peptide at 30, duplicate 1
Protocol: as §1

[8] = biological target: T1, recombinant His-tagged Der p1; assay: ELISA, Der p1 on plate, biotinylated peptide at 30, duplicate 2
Protocol: as §1

[9] = biological target: T1, recombinant His-tagged Der p1; assay: ELISA, Der p1 on plate, biotinylated peptide at 3.333, duplicate 1
Protocol: as §1

[10] = biological target: T1, recombinant His-tagged Der p1; assay: ELISA, Der p1 on plate, biotinylated peptide at 10, duplicate 1
Protocol: as §1

[11] = biological target: T1, recombinant His-tagged Der p1; assay: ELISA, Der p1 on plate, biotinylated peptide at 0.370, duplicate 2
Protocol: as §1

[12] = biological target: T1, recombinant His-tagged Der p1; assay: ELISA, Der p1 on plate, biotinylated peptide at 0.041, duplicate 1
Protocol: as §1

[13] = biological target: T1, recombinant His-tagged Der p1; assay: ELISA, Der p1 on plate, biotinylated peptide at 1.111, duplicate 2
Protocol: as §1

[14] = biological target: T1, recombinant His-tagged Der p1; assay: ELISA, Der p1 on plate, biotinylated peptide at 0.123, duplicate 2
Protocol: as §1

Fel D1 = biological target: T2, Fel D1 (Felis catus, UniProt P30438); assay: ELISA binding assay of anti-Fel d1 VHH clones on Fel D1 epitopes; set-up: species or system cat; conditions: Epitope Recognized AKMTEEDKENALS (SEQ ID NO: 60)
T2 construct: made in house; host or cells: chemically synthesized peptides
Protocol: 2 microgram per milliliter (μg/mL) target antigen is coated in a 96-well plate and ELISA assay is performed after incubation with candidate VHHs. The binding EC50 of each clone is calculated using Prism GraphPad. The positive control antibody is involved as an internal control.
Four distinct epitopes of Fel D1 were selected to be used for further identification. Peptides were synthesized for the four epitopes for VHH identification.
Isolated VHH clones were further validated by performing an ELISA assay as described in Example 1. Binding results are shown in FIG. 15B-15D for the epitope of SEQ ID NO: 61. Binding results are shown in FIG. 16 for the epitope of SEQ ID NO: 59. Binding results are shown in FIG. 17A-17E for the epitope of SEQ ID NO: 60. Binding results are shown in FIG. 18 for the epitope of SEQ ID NO: 58.

[15] = Thermostability (Tm, Tonset, Tagg) by Nanotemper DSF; type: physicochemical; set-up: key to Tm2 / Tagg / Tm1 / Tm / Tm3 / Tonset / Tonset ø (mean) / Tagg ø (mean): temperatures in °C; conditions: for Tm: single melting point
Summary of the method: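 Isolated VHH clones were heated from 20 °C to 95 °C at 1 °C/min using DSF. Tm, Tonset and Tagg were derived from the thermal curves. Where several melting transitions occurred, each was reported in order (Tm1, Tm2, etc.).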

[16] = Average of two replicates, anti-Fel d1 VHH
[17] = Average of two replicates, anti-Fel d1 VHH, in °C (unit assumed)
[18] = Replicate 1, in °C (unit assumed)
[19] = Replicate 2, in °C (unit assumed)
[20] = anti-Fel d1 VHH, in °C (unit assumed)

Molecule	OD450 [1] [OD450]	OD450 [2] [OD450]	OD450 [3] [OD450]	OD450 [4] [OD450]	OD450 [5] [OD450]	OD450 [6] [OD450]	OD450 [7] [OD450]	OD450 [8] [OD450]	OD450 [9] [OD450]	OD450 [10] [OD450]	OD450 [11] [OD450]	OD450 [12] [OD450]	OD450 [13] [OD450]	OD450 [14] [OD450]	EC50 (Fel D1) [µg/mL]	Tagg ø (mean) [15, 16]	Tonset ø (mean) [15, 16]	Tagg ([15]; Replicate 1)	Tonset ([15]; Replicate 1)	Tagg ([15]; Replicate 2)	other results
GIHMALM (also: biotinylated, site not given here, 7-amino acid peptide from a phage display library) [SDAB22110-2-B2]	0.136	0.061	0.089	0.083	0.078	0.289	0.536	0.537	0.132	0.275	0.071	0.07	0.089	0.066	–	–	–	–	–	–	–
AVVSFYP (also: biotinylated, site not given here, 7-amino acid peptide from a phage display library) [SDAB22110-2-F1]	0.209	0.066	0.131	0.076	0.073	0.516	0.938	0.805	0.221	0.479	0.073	0.079	0.125	0.075	–	–	–	–	–	–	–
HSGPECG (also: biotinylated, site not given here, 7-amino acid peptide from a phage display library) [SDAB22110-2-D3]	2.88	0.463	2.16	1.37	0.866	3.57	4.1	4.13	2.77	3.55	1.36	0.468	2.25	0.906	–	–	–	–	–	–	–
SDAB22110-4-3-B02: anti-Fel d1 VHH clone, SEQ ID NO: 54 (protein) VHH: QVQLVESGGGLVQPGGSLRLSCVASGFTFSFYTMEWYRQAAGKQRELVAGLTASGTTHYADSAKGRFTISRDNAWNTVFLQMNGLKPEDTAVYYCNAYSGYRDYWGQGTQVTVSL	–	–	–	–	–	–	–	–	–	–	–	–	–	–	12.200	35.68	33.78	35.55	33.78	35.82	Tm ø (mean), first melting point (Tm1) [15, 17]: 42.43; Tm, first melting point (Tm1) [15, 18]: 42.52; Tonset ([15]; Replicate 2): 33.78; Tm, first melting point (Tm1) [15, 19]: 42.34; Tagg ([15]; anti-Fel d1 VHH): 40.93; Tm [15, 20]: 46.83
SDAB22110-4-3-E05: anti-Fel d1 VHH clone, SEQ ID NO: 55 (protein) VHH: QVQLVESGGGLVQPGGSLRLSCVGSGFTFSQYAMRWYRQVPGKARELVAAISRSGDFMYYADSVKGRFTISRDNVKSAVILQMNSLKPEDTAVYYCYGQATISDTLWGQGTQVTVSS	–	–	–	–	–	–	–	–	–	–	–	–	–	–	1.719	40.93	35.67	40.93	35.61	40.93	Tm ø (mean), first melting point (Tm1) [15, 17]: 46.83; Tm, first melting point (Tm1) [15, 18]: 47.02; Tonset ([15]; Replicate 2): 35.73; Tm, first melting point (Tm1) [15, 19]: 46.64; Tagg ([15]; anti-Fel d1 VHH): 31.74; aggregates ([15]; anti-Fel d1 VHH): Possible; Tm1 ([15]; anti-Fel d1 VHH, first melting point, in °C (unit assumed)): 37.85; Tm2 ([15]; anti-Fel d1 VHH, second melting point, in °C (unit assumed)): 47.65; Tm3 ([15]; anti-Fel d1 VHH, third melting point, in °C (unit assumed)): 62.39
SDAB22110-4-3-H02: anti-Fel d1 VHH clone, SEQ ID NO: 57 (protein) VHH: QLQLVESGGGLVQPGGSLRLSCEASGFTFKYYTMSWYRQAPGKERELVATITNGDRTNYADSVKGRFTISRDNAKNTLYLQMNSLKPYDTAVYYCNRHLPLLQIWGQGTQVTVSS	–	–	–	–	–	–	–	–	–	–	–	–	–	–	12.940	42.29	47.54	42.24	47.33	42.35	Tm ø (mean), first melting point (Tm1) [15, 17]: 58.58; Tm, first melting point (Tm1) [15, 18]: 58.60; Tonset ([15]; Replicate 2): 47.76; Tm, first melting point (Tm1) [15, 19]: 58.57; Tagg ([15]; anti-Fel d1 VHH): 42.30; Tm ([15]; anti-Fel d1 VHH): 47.50
SDAB22110-4-3-G08: anti-Fel d1 VHH clone, SEQ ID NO: 56 (protein) VHH: DVQLVESGGGLVQPGGSLRLSCAASGFTFSLYYMSWYRQVPGKERELVATITSGTHATTYADSVKGRFTISRDNAKNTVSLQMNSLKREDTGVYYCKRTNAGQDPWGQGTQVTVSS	–	–	–	–	–	–	–	–	–	–	–	–	–	–	2.215	31.74	27.92	31.71	27.93	31.77	Tm ø (mean), first melting point (Tm1) [15, 16]: 37.85,; Tm ø (mean), second melting point (Tm2) [15, 17]: 47.65; Tm ø (mean), third melting point (Tm3) [15, 17]: 62.92; Tm, first melting point (Tm1) ([15]; Replicate 1): 37.77,; Tm, second melting point (Tm2) [15, 18]: 47.76; Tm, third melting point (Tm3) [15, 18]: 61.85; Tm, first melting point (Tm1) ([15]; Replicate 2): 37.92,; Tonset ([15]; Replicate 2): 27.92; Tm, second melting point (Tm2) [15, 19]: 47.53; Tm, third melting point (Tm3) [15, 19]: 62.92; Tagg ([15]; anti-Fel d1 VHH): 42.29; Tm [15, 20]: 58.58
YPTWAYR (also: biotinylated, site not given here, 7-amino acid peptide from a phage display library) [SDAB22110-2-C3]	0.191	0.057	0.104	0.072	0.065	0.376	0.684	0.748	0.162	0.346	0.066	0.058	0.102	0.065	–	–	–	–	–	–	–
LTGYGMS (also: biotinylated, site not given here, 7-amino acid peptide from a phage display library) [SDAB22110-2-D9]	0.154	0.059	0.095	0.068	0.067	0.357	0.751	0.771	0.154	0.374	0.078	0.061	0.102	0.068	–	–	–	–	–	–	–
